Here are results for 18 molecules from US20260116983A1 (University of California, published 2026).

T1: cynomolgus uPAR (recombinant) (cynomolgus monkey, UniProt Q9GK78 23-303, limits assumed)
T1 construct: also called cyno uPAR; AF647-cyno uPAR
T1 sequence (looked up): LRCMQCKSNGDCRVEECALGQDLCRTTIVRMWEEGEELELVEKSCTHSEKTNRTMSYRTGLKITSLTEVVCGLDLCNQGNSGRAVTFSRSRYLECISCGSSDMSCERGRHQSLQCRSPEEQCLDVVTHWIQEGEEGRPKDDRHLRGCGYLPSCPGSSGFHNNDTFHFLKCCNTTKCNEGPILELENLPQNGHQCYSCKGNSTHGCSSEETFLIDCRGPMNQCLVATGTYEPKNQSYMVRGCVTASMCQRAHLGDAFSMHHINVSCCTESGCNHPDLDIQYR

B1: Antibody 3159 (antibody, human IgG1, V domains shown)
VH: QVTLKESGPGILQSSLTLSLTCSLSGFSLSTSGMGVSWIRQPSGKGLEWLAHIYWDDDKRYNPSLKTRLTISKDASRDQVFLKIISVDTADTGTYYCGRRVRNYFSGTSYWYFDVWGTGTTVTVSS
VL: DVLMTQTPLSLSVSLGDQASISCRSSQNILHRTGNTYLEWYLQKPGQSPKLLIYKVSNRFSGVPDRFSGSGSGTDFTLKISRLEAEDLGVYYCFQGSYVPFTFGSGTKLEMK
notes: Chimeric: mouse VH/VL linked to Herceptin (trastuzumab) human IgG1 / kappa constant regions
B2: Antibody 3595 (antibody, human IgG1, V domains shown)
VH: EVQLRQSGPELVKPGASVKISCKASGYTFTDYYMNWVKQSHEKSLEWIGNINPNNGGTDYNQKFKGKATLTVDKSSSTAYMELRSLTSEDSAVYYCARSYGSRFPYWGLGTLVTVSA
VL: DIQMTQTTSSLSASLGDRVTISCRASQDITNYLSWYQQKPDGTVKLLIFYTSFLQSGVPLRFSGSGSGADYSLTISNLEQEDFATYFCQQGHTLPWTFGGGTKLEIK
notes: as for B1
B3: 11857 HC1 + LC1 (humanized) (antibody, V domains shown)
VH: EVQLVQSGAEVKKPGATVKISCKVSGYTFTDYYMNWVQQAPGKSLEWMGNINPNNGGTDYNQKFQGRVTITADKSTSTAYMELSSLRSEDTAVYYCARSYGSRFPYWGLGTLVTVSS
VL: DIQMTQSPSSLSASVGDRVTITCRASQDITNYLSWYQQKPGGTVKLLLYYTAVLQSGFPSRFSGSGSGADYTLTISSLQPEDFATYYCQQGHTLPWTFGGGTKVEIK
notes: detected with anti-human Fc antibody
B4: 11857 HC2 + LC1 (humanized) (antibody, V domains shown)
VH: B3 VH with T17S, I20V, V24A, Q38R, N61S, A72V, K74T, T76A
VL: B3 VL
notes: as for B3
B5: 11857 HC1 + LC2 (humanized) (antibody, V domains shown)
VH: B3 VH
VL: B3 VL with L48I, Y49F, Y71F, F83V
notes: as for B3
B6: 11857 HC3 + LC2 (humanized) (antibody, V domains shown)
VH: EVQLVQSGAEVKKPGASVKVSCKASGYTFTDYYMNWVRQAPGKSLEWMGNINPNNGGTDYNQKFQGRVTLTVDTSISTAYMELSRLRSDDTVVYYCARSYGSRFPYWGLGTLVTVSS
VL: B3 VL with L48I, Y49F, Y71F, F83V
B7: 11857 HC3 + LC1 (humanized) (antibody, V domains shown)
VH: B6 VH
VL: B3 VL
notes: as for B3
B8: 11857 HC2 + LC2 (humanized) (antibody, V domains shown)
VH: B6 VH with N61S, L70I, I76A, R85S, D89E, V92A
VL: B3 VL with L48I, Y49F, Y71F, F83V
notes: as for B3
B9: 3159 HC1 + LC3 (humanized) (antibody, V domains shown)
VH: QVTLRESGPALVKPTQTLTLTCTLSGFSLSTSGMGVSWIRQPPGKALEWLAHIYWDDDKRYSTSLKTRLTISKDASKDQVVLTMTNMDTVDTATYYCGRRVRNYFSGTSYWYFDVWGTGTLVTVSS
VL: DIVMTQSPLSLPVTPGEPASISCRSSQNILHRTGNTYLDWYLQKPGQSPQLLIYKVSNRFSGVPDRFSGSGSGTDFTLKISRVEAEDVGVYYCFQGSYVPFTFGQGTKLEIK
notes: as for B3
B10: 3159 HC3 + LC1 (humanized) (antibody, V domains shown)
VH: B9 VH with V2I, R5K, A10T, S62N, T63P, T67S, S72T
VL: B9 VL with S7T, P12S, E17Q, R24K, D39E, S48P
notes: as for B3
B11: 3159 HC2 + LC1 (humanized) (antibody, V domains shown)
VH: B9 VH with R5K, A10V, Q16E, L24V, A46G, T63P, T67S
VL: B9 VL with S7T, P12S, E17Q, R24K, D39E, S48P
notes: as for B3
B12: 3159 HC3 + LC2 (humanized) (antibody, V domains shown)
VH: B9 VH with V2I, R5K, A10T, S62N, T63P, T67S, S72T
VL: B9 VL with I2V, P15L, E17Q, D39E, Y41F, L42Q, K44R, Q50R
notes: as for B3
B13: 3159 HC2 + LC2 (humanized) (antibody, V domains shown)
VH: B9 VH with R5K, A10V, Q16E, L24V, A46G, T63P, T67S
VL: B9 VL with I2V, P15L, E17Q, D39E, Y41F, L42Q, K44R, Q50R
notes: as for B3
B14: 3159 HC1 + LC2 (humanized) (antibody, V domains shown)
VH: B9 VH
VL: B9 VL with I2V, P15L, E17Q, D39E, Y41F, L42Q, K44R, Q50R
notes: as for B3
B15: 3159 HC3 + LC3 (humanized) (antibody, V domains shown)
VH: B9 VH with V2I, R5K, A10T, S62N, T63P, T67S, S72T
VL: B9 VL
notes: as for B3
B16: 3159 HC1 + LC1 (humanized) (antibody, V domains shown)
VH: B9 VH
VL: B9 VL with S7T, P12S, E17Q, R24K, D39E, S48P
notes: as for B3
B17: 3159 HC2 + LC3 (humanized) (antibody, V domains shown)
VH: B9 VH with R5K, A10V, Q16E, L24V, A46G, T63P, T67S
VL: B9 VL
notes: as for B3
B18: 11857 HC1 + LC3 (humanized) (antibody, V domains shown)
VH: B3 VH
VL: B3 VL with Y36F, L48I, Y71F
notes: as for B3

Changes are numbered by the printed parent chain.

T3 sequence (Q03405 23-305 limits assumed): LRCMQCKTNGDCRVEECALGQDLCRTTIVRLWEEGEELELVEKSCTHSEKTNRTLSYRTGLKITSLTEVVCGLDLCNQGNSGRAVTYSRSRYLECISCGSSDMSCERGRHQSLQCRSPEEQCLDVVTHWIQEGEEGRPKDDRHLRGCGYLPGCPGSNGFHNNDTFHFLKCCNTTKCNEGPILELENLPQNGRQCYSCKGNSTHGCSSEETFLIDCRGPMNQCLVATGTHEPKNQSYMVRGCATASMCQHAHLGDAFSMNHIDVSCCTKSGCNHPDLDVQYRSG

The first experiment addresses T1, cynomolgus uPAR (recombinant). Put plainly: ELISA, plate-coated cyno uPAR. The procedure: (§1) To ensure the cross-reactivity of the 12 lead candidates was maintained with the Herceptin constant region, their binding to human and cyno uPAR was evaluated by ELISA (FIG. 3A).
(§2) Nunc MaxiSorp™ flat-bottom 96-well plates were coated with human or cyno uPAR (3.19 μg/mL) at 4° C. overnight, and plates were washed with wash buffer and blocked with 5% non-fat dry milk. A standard log serial dilution of each antibody candidate was added to the uPAR-coated plates and incubated at 4° C. overnight. Plates were washed three times and incubated with 50 μL of HRP-conjugated goat anti-human (H+L) antibody (Biorad). After a two-hr incubation, plates were washed, and 100 μL of 1-Step™ Turbo TMB-ELISA Substrate Solution (Thermo Scientific) was added to each well. The reaction was quenched with 2M H₂SO₄ for 5 min at room temperature, and the optical density of each well was measured at 450 nm using a SpectraMax190 microplate reader.
Background: In an ELISA, binding on a coated surface is turned into a signal by an enzyme label.
As usually defined, the EC50 is the concentration at which the effect is half-maximal. As for B1, the EC50 amounted to 0.27 nM.

For B2, the EC50 amounted to 0.1 nM.

A further experiment deals with T2, human uPAR displayed on the surface of MDA-MB-231 cells (human, UniProt Q03405 23-305).
T2 construct: whole, on cells; also called cell-surface uPAR; cellular uPAR
T2 sequence (Q03405 23-305): as the sequence (Q03405 23-305 limits assumed) above
Put plainly: flow cytometry (FACS) on MDA-MB-231 cells. The source says: Antibodies generated by immunizing animals with suPAR, which lacks the cell surface anchoring motif, can target protein regions that are not accessible for membrane-bound uPAR. […] Thus, FACS was applied to evaluate the cell-surface uPAR recognition by each antibody candidate under different concentrations of MDA-MB-231 cells, a triple-negative breast cancer cell line with high uPAR expression (FIG. 2).
MDA-MB-231 cells were harvested with TrypleE and resuspended in FACS buffer (PBS+1% BSA) to 2×10⁶ cells/mL before being aliquoted to a 96-well plate (100 μL, 2×10⁵ cells/well). Cells were pelleted by centrifuging the microplate for 5 min at 400 RCF and resuspended in PBS containing serially diluted antibodies to a maximum concentration of 600 nM, followed by a 50 min incubation at 4° C. Cells were then washed three times with PBS and incubated with an AlexaFluor488-conjugated goat anti-human IgG for 50 min at 4° C. in the dark. Finally, cells were washed twice with FACS buffer and resuspended in 80 μL for FACS analysis in a Bio-rad S3e Cell Sorter.
For orientation: In flow cytometry, cells or beads pass a laser one at a time.
Turning to B1, the “Cellular recognition Max %” value came out at 1830% and the EC50 came out at 0.916 nM.

As for B2, the “Cellular recognition Max %” value is 2280% and the half-maximal effective concentration (EC50) amounted to 0.453 nM.

Another experiment addresses T3, human uPAR (recombinant protein used in ELISA and BLI) (human, UniProt Q03405 23-305, limits assumed).
T3 construct: Whole entry named; also called biotinylated human uPAR
As to the kind of experiment: ELISA, plate-coated human uPAR. The procedure: as §1, §2
As for B1, the EC50 was 0.53 nM.

Turning to B2, the EC50 was determined as 0.05 nM.

Another experiment has as its target T2, human uPAR displayed on the surface of …. Put plainly: cell-based or functional assay.
Consider B1, for which the “ADC Cytotoxicity EC50” value worked out at 0.75 nM, the “ADC Cytotoxicity Max %” value turned out to be 32%, the “ADCC NK-92 EC50” value was 0.887 nM and the “ADCC NK-92 Max %” value was determined as 28.2%. Also, the “ADCC PBMCs EC50” value amounted to 0.11 nM, the “ADCC PBMCs Max %” value turned out to be 47.4% and the “Adhesion blocking EC50” value was found to be 1610 nM.

As for B2, the “ADC Cytotoxicity EC50” value was 0.66 nM, the “ADC Cytotoxicity Max %” value turned out to be 34.8%, the “ADCC NK-92 EC50” value was 0.2 nM and the “ADCC NK-92 Max %” value came out at 21.9%. Further, the “ADCC PBMCs EC50” value stood at 0.1 nM, the “ADCC PBMCs Max %” value turned out to be 55.6% and the “Adhesion blocking EC50” value was greater than 10000 nM.

A further experiment has as its target T3, human uPAR (recombinant protein used in …). As to the kind of experiment: BLI (Octet HTX). The procedure:
(§3) Kinetic constant ranges for Octet HTX were between 1 mM to 10 pM.
As usually defined, the Kd is a measure of binding affinity in units of concentration. Consider B1, for which the Kd was less than 0.01 nM.

For the molecule B3, the Kd was 127 nM.

With B4, the dissociation constant (Kd) is 125 nM.

Take B5: the Kd is 53.4 nM.

Consider B6, for which the Kd was found to be 75.6 nM.

Turning to B7, the Kd turned out to be 147 nM.

In the case of B8, the Kd was 45.7 nM.

Take B9: the equilibrium dissociation constant (Kd) is 5.58 nM.

Turning to B10, the Kd was less than 0.01 nM.

B11: the Kd was less than 0.01 nM.

As to B12, the Kd stood at 4.66 nM.

As for B13, the Kd was less than 0.01 nM.

For the molecule B14, the Kd was less than 0.01 nM.

B15: the dissociation constant Kd amounted to 7.39 nM.

On to B16, for which the Kd was determined as 6.79 nM.

As for B17, the Kd was less than 0.01 nM.

A further experiment addresses T1, cynomolgus uPAR (recombinant). Put plainly: BLI (Octet HTX). The procedure: as §3
In general terms: In BLI a coated tip is dipped into the sample, and binding shifts an interference pattern.
Take B1: the dissociation constant (Kd) is 934 nM.

As for B3, the Kd is 69.7 nM.

Regarding B4, the Kd turned out to be 307 nM.

Turning to B5, the Kd turned out to be 32.4 nM.

As to B6, the Kd amounted to 59.6 nM.

On to B7, for which the equilibrium dissociation constant (Kd) was 83.9 nM.

Consider B8, for which the Kd worked out at 59.5 nM.

As for B9, the Kd came to 162 nM.

For the molecule B10, the Kd is 202 nM.

For B11, the Kd is 41.1 nM.

As to B12, the Kd was determined as 2240 nM.

For the molecule B13, the Kd stood at 404 nM.

For the molecule B14, the Kd turned out to be 5870 nM.

Turning to B15, the dissociation constant (Kd) came out at 58.5 nM.

With B16, the Kd was 556 nM.

As to B17, the Kd came to 255 nM.

The target of a further experiment is T2, human uPAR displayed on the surface of …. As to the kind of experiment: flow cytometry on MDA-MB-231 cells.
In turn, B1 returned an EC50 of 0.188 µg/mL.

B3 registered an EC50 of 0.695 µg/mL.

Take B4: the response was half-maximal at 0.432 µg/mL (EC50).

B5 displayed an EC50 of 0.223 µg/mL.

For the molecule B7, the 50% effective concentration (EC50) was determined as 0.304 µg/mL.

As to B18, the EC50 is 1.21 µg/mL.

B8 had an EC50 of 0.212 µg/mL.

In turn, B9 showed an EC50 of 0.27 µg/mL.

B10 gave an EC50 of 0.488 µg/mL.

As to B11, the half-maximal effective concentration (EC50) came out at 0.379 µg/mL.

Molecule B12 came in with an EC50 of 0.214 µg/mL.

B13 displayed an EC50 of 0.32 µg/mL.

With B14, the EC50 was determined as 0.518 µg/mL.

With B15, the 50% effective concentration (EC50) was determined as 0.185 µg/mL.

As to B16, a half-maximal response (EC50) required 0.187 µg/mL.

For B17, a half-maximal effect (EC50) was put at 0.205 µg/mL.
